Results as given in patent US20210388105A1 (ELPISCIENCE SUZHOU BIOPHARMA, published 2021).

T1: KW27-19 (human CD39 mutant, C-terminal EGFP) (human, UniProt P49961 1-510)
T1 construct: expressed on HEK293F cells; not shown: C-terminal EGFP fusion (vector pCMV3-GFPSpark)
T1 chain: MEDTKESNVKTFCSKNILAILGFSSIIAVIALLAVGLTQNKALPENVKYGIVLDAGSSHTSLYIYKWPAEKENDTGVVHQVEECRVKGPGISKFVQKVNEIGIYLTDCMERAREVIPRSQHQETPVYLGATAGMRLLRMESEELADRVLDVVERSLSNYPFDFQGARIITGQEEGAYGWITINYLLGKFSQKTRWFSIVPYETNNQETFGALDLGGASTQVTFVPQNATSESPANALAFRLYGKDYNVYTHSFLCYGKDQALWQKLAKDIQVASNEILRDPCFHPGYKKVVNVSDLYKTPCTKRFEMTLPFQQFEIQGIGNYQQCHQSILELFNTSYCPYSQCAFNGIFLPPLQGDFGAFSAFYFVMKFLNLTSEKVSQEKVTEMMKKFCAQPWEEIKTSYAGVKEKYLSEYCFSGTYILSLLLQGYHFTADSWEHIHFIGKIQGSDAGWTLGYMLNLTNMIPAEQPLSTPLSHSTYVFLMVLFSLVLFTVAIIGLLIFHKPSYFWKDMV

T2: KW27-10 (human CD39 mutant, C-terminal EGFP) (human, UniProt P49961 1-510)
T2 construct: expressed on HEK293F cells; not shown: C-terminal EGFP fusion (vector pCMV3-GFPSpark)
T2 chain: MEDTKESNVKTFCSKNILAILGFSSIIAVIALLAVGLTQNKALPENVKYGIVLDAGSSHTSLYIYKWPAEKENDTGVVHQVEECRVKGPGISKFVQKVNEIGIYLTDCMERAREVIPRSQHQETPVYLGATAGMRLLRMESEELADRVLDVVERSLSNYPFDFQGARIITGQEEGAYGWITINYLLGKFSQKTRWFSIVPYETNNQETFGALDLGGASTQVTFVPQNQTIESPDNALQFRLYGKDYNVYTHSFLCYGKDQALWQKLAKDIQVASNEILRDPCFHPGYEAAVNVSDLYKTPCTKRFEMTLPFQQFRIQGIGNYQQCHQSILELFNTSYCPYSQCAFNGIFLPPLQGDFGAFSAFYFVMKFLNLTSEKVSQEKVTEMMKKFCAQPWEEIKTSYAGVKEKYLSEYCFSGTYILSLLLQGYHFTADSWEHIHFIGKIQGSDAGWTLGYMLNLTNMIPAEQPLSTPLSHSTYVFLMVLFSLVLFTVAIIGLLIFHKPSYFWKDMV

T3: KW27-12 (human CD39 mutant, C-terminal EGFP) (human, UniProt P49961 1-510)
T3 construct: expressed on HEK293F cells; not shown: C-terminal EGFP fusion (vector pCMV3-GFPSpark)
T3 chain: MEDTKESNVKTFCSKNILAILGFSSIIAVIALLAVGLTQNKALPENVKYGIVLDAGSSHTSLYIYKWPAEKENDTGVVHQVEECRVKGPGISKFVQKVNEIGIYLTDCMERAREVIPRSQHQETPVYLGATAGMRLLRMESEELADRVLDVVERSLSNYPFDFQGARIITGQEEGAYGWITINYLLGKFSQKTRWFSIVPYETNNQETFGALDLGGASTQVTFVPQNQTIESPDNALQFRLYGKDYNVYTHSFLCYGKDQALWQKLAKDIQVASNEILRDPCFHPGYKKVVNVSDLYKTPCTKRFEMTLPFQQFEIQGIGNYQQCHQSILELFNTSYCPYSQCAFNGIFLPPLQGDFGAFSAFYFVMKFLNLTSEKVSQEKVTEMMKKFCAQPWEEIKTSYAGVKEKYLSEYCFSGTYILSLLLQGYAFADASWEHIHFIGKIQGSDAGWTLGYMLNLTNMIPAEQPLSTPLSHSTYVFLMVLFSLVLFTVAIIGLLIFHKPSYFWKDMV

T4: human CD39 (protein; form not stated) (human, UniProt P49961 38-478, limits assumed)
T4 construct: also called ENTPD1; ENTPDase 1
T4 sequence: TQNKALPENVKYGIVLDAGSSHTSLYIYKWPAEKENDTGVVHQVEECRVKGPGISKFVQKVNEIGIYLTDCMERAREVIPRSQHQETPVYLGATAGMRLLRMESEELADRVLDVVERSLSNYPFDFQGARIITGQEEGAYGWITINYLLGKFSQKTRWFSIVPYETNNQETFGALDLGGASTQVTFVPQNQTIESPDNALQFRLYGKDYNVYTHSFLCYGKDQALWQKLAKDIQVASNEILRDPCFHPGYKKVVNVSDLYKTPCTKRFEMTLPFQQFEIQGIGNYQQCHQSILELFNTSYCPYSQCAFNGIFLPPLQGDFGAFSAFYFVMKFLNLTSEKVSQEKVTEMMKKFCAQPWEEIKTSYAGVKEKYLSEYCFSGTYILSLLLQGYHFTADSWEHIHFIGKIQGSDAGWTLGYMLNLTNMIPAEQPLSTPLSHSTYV


Key:
[1] = target: T1, KW27-19 (human CD39 mutant, C-terminal …); test: FACS, mutant-EGFP on HEK293F cells
Procedure: (§1) Briefly, the human CD39 mutants were generated by gene synthesis and then cloned into an expression vector pCMV3-GFPSpark. The vectors containing the validated mutated sequences were prepared and transfected into HEK293F cells. Three days post transfection, the cells were collected to testing EGFP for transgene expression. A range of dosages of antibodies (start from 100 nM, 3-folds dilution, 11 points) were tested on the 20 generated mutants and stained by AlexFluor647 labelled anti-hIgG by FACS. Antibody binding was descripted as relative binding which is derived from AlexFluor647 intensity divided by GFP intensity.

[2] = target: T2, KW27-10 (human CD39 mutant, C-terminal …); test: FACS, mutant-EGFP on HEK293F cells
Procedure: as §1

[3] = target: T3, KW27-12 (human CD39 mutant, C-terminal …); test: FACS, mutant-EGFP on HEK293F cells
Procedure: as §1

[4] = target: T4, human CD39 (protein; form not stated); test: Octet (BLI), antibody on sensor, CD39 in solution
Procedure: Briefly, the antibodies were coupled on sensors and then the sensors were dipped into CD39 gradients (start at 200 nM, with 2-fold dilution and totally 8 doses). Their binding responses were measured in real-time and results were fit globally.

| binding result [1] | binding result [2] | binding result [3] | Kd [4] | koff [4] | kon [4] | Binder |
| --- | --- | --- | --- | --- | --- | --- |
| binds | binds | binds | 6.62 nM | 0.00444 s⁻¹ | 671000 M⁻¹ s⁻¹ | Antibody T895 (antibody, V domains shown, also called 31895) VH: EVQLQQSGPELVKPGASVKMSCKASGYTFTDYNMHWVKQSHGRTLEWIGYIVPLNGGSTFNQKFKGRATLTVNTSSRTAYMELRSLTSEDSAAYYCARGGTRFAYWGQGTLVTVSA VL: not shown |
| binds | binds | binds | – | – | – | c35 (antibody, V domains shown, its making is not described; also called chimeric antibody c35) VH: EVRLQQSGAELVKPGASVKLSCTASGFNIEDTYVHWMKQRPEQGLEWIGRIDPAIDNSKYDPKFQGKATITAVSSSNTAYLQLSSLTSEDTAVYYCALYDGYNVYAMDYWGQGTSVTVSS VL: DIVMTQAAFSNPVTLGTSASISCRSSKNLLHSNGITYLYWYLQRPGQSPQLLIYRASTLASGVPNRFSGSESGTDFTLRISRVEAEDVGVYYCAQLLELPHTFGGGTKLEIK |
| binds | binds | binds | – | – | – | c34 (antibody, V domains shown, its making is not described; also called chimeric antibody c34) VH: EIQVQQSGPELVKPGASVKVSCKASGYSFTDYNMYWVKQSHGKSLEWIGFIDPYNGYTSYNQKFKGKATLTIDKSSSTAFMHLNSLTSEDSAVYYCAIYGYDDAYYFDYWGQGTTLTVSS VL: QIVLTQSPAIMSASPGEKVTITCSATSSVSYMHWFRQKPGTSPKLWIYSTSNLASGVPARFSGSGSGTSYSLTISRMAAEDAATYYCQQRITYPFTFGSGTKLEIT |
| binds | binds | binds | 0.687 nM | 9.36e-05 s⁻¹ | 136000 M⁻¹ s⁻¹ | hu23.H5L5 (antibody, V domains shown, humanized c23) VH: QVQLVQSGAEVKKPGASVKVSCKASGYNLKDTFLHWVRQAPGQGLEWMGRIDPANGNIKYDPKFQGRVTITADTSANTAYMELISLRSEDTAVYYCANSPYYYGSGYRIFDVWGQGTTVTVSS VL: QIVLTQSPATLSLSPGERATLSCSAFSSVNYMHWYQQKPGQAPRLLIYTTSNLASGIPTRFSGSGSGTSYTLTISSLEPEDFAVYYCQQRSTYPFTFGQGTKLEIK |
| binds | binds | binds | 20.2 nM | 0.00243 s⁻¹ | 120000 M⁻¹ s⁻¹ | Antibody 9-8B (antibody, V domains shown) VH: QIQLVQSGPELKKPGETVKISCKASGYTFTHYGMNWVKQAPGKGLKWMGWINTYTGELTYADDFKGRFAFSLETSASTAYLQINNLKNEDTATYFCARRAYYRYDYVMDYWGQGTSVTVSS VL: DIVMTQSQKFMSTSVGDRVSVTCKASHNVGTNVAWYQQKPGQSPKALIYSASYRYSGVPGRFTGSGSGTDFTLTISNVQSEDLAEYFCHQYNNYPYTFGGGTKLEIK |
